Assay [1] addresses T1, extracellular domain of human Cripto-1, soluble form, with N-terminal His-tag (human, limits assumed).
T1 construct: Prepared in soluble form by the method of Alam et al., Int J Mol Sci 2018; also called purified human Cripto-1; CR-1
T1 chain: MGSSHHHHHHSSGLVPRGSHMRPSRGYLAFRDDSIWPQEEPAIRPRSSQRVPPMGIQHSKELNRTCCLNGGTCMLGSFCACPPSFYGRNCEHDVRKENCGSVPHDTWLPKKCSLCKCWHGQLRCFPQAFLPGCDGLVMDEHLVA
In words: screening of a phage-displayed human antibody library. The method, then:
The extracellular domain of human Cripto-1 contains the amino acid sequence represented by SEQ ID NO: 11, and has a His-tag sequence having the amino acid sequence represented by SEQ ID NO: 12 at its N-terminus. The extracellular domain of human Cripto-1 was prepared in its soluble form in accordance with the method disclosed in Alam. et. al., Int J Mol Sci. 2018, 26; 19 (11). The antibody library used as a screening target is described in Sakai, K. et al., Biochemistry 46 (1): 253-62, and the subclass of the antibody is IgG.

Assay [2] concerns the target T2, human Cripto-1 in human cancer tissue (tissue array BCN801) (human, UniProt P13385 31-150, GPI-anchor (thought to be bound to the cell membrane surface by GPI-anchors)).
T2 construct: whole, on cells; Endogenous protein detected by immunostaining of pancreas, thyroid, prostate, stomach, cervical, colorectal and breast cancer tissue; also called CR-1
T2 sequence (looked up): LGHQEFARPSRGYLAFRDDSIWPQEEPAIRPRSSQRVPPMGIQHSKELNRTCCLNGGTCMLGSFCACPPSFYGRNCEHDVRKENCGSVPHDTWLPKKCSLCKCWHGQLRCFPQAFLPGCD
Nature of the assay: immunostaining of a human cancer tissue array, ALEXA568-labeled anti-human IgG secondary antibody. On the procedure: Immunostaining was performed on a human cancer tissue array (BCN801, US Biomax Inc.). The #35 clone was used as a primary antibody. ALEXA568-labeled anti-human IgG goat antibody (Invitrogen) was used as a secondary antibody to detect human Cripto-1 in each cancer tissue (pancreas cancer tissue, thyroid gland cancer tissue, prostate cancer tissue, stomach cancer tissue, cervical cancer tissue, colorectal cancer tissue, and breast cancer tissue). These cancer tissues contained cancer stem cells as well as cancer cells, and Cripto-1 was thought to be bound to the surface of the cell membrane of the cancer stem cells by GPI-anchors. In a negative control experiment, the signal background was confirmed by using only the secondary antibody. FIGS. 3 to 5 show the results.

B1: #35 clone antibody (human-derived anti-human Cripto-1 monoclonal antibody) (antibody, V domains shown)
VH: QVQLQQSGPGLVKPSQTLSLTCAISGNSVSSNSAAWNWIRRSPSRGLEWLGRTYYRSKWYNDYAVSVKSRITIKPDTSKNQFSLQLNSVTPEDTAMYYCARGFCSGGRCYSFDYWGPGTLVTVSS
VL: QSVLTQPASVSGSPGQSITISCTGTDSDVGAYGSASWYRHSPGKAPQLIIYDVTNRPSGVSNRFYGSKSGNTASLTISGLQAEDEADYYCQAWDSGIHVVFGGGTQLTVLG
notes: The library subclass is IgG; also called Clone #35
Consider B1, for which the binding result in assay [1] and in assay [2] was “binds” each time.

Values taken from patent US20220363777A1 (GSP ENTERPRISE, published 2022).
